Data as given in article PMC8163065, “Involvement of the R2R3-MYB transcription factor MYB21 and its homologs in regulating flavonol accumulation in Arabidopsis stamen”.

T1: GST-MYB21 (Arabidopsis thaliana, UniProt Q9LK95 1-226)
T1 sequence: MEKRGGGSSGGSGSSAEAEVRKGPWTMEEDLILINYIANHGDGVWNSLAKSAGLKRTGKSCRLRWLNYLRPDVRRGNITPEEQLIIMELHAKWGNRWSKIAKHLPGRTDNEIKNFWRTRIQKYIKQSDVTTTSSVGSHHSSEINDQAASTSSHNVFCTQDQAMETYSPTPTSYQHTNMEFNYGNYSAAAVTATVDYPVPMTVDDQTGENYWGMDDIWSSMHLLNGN

B1: GARE1 FLS1 promoter probe (dsDNA)
DNA 1: AGCCAGTGGCGATAAGCTCTCACCTTTTTTTTGTTATTTTATATCTTAAG
DNA 2: CTTAAGATATAAAATAACAAAAAAAAGGTGAGAGCTTATCGCCACTGGCT
B2: GARE2 FLS1 promoter probe (dsDNA)
DNA 1: AGCCAGTGGCGATAAGCTGGGCCTTGTCTTGTTATATGGGCCTTGAATC
DNA 2: GATTCAAGGCCCATATAACAAGACAAGGCCCAGCTTATCGCCACTGGCT

Target: T1, GST-MYB21
Experiment: EMSA; LightShift Chemiluminescent EMSA kit (Thermo), per manufacturer; buffer, salt, pH and temperature not stated
Conditions: protein: recombinant; tags: N-terminal GST (pGEX-4T-1); label: biotin (via primer S18, 5' tail); blunt

Binder | binding result
B1 | binds
B2 | binds
